Reference: patent US20070248589A1 (GOVERNMENT OF THE UNITED STATES OF AMERICA AS REPRESENTED …, published 2007)

What was measured:
HA-tagged SPATIAL = biological target: T1, HA-tagged SPATIAL (Mus musculus, UniProt Q7TSD4); test: Co-immunoprecipitation of SPATIAL and Uba3 from transfected 293T cells; type: binding; settings: only in samples that contained HA-tagged SPATIAL, FIG. 15
T1 construct: expressed in transfected cells; host or cells: 293T human kidney epithelial cells, calcium phosphate transfection
T1 sequence (Q7TSD4 with tags, fused parts or gaps isoform Q7TSD4-6 limits assumed): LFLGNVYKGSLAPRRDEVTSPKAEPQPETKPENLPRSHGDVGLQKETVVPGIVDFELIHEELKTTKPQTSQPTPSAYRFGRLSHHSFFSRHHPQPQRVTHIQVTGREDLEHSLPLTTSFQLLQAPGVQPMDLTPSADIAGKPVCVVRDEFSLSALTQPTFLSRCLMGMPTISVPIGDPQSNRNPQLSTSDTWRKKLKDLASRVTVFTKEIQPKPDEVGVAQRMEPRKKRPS
T1 sequence (Q8C878 224-462 P243X partner limits assumed): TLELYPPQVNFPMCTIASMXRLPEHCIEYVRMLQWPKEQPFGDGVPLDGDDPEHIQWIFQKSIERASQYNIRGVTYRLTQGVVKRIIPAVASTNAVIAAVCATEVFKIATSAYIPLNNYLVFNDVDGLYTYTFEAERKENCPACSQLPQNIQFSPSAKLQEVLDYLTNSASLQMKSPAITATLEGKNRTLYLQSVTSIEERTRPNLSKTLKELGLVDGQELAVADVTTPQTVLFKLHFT
Description: Expression vectors encoding Myc-346 and HA-tagged SPATIAL were transfected alone or in combination into 293T cells by calcium phosphate precipitation (Mammalian Transfection Kit; Stratagene, La Jolla, Calif.) in accordance with manufacturer's instructions. Total protein lysates were prepared and immunoprecipitated with an anti-HA antibody, as described in Ausubel et al., Current Protocols in Molecular Biology, Greene Publishing Associates, updated November 2003, Chapter 20, Analysis of Protein Interactions, Unit 20.5, Detection of Protein-Protein Interaction by Coprecipitation. The immunoprecipitated proteins were separated by SDS-PAGE and transferred to a membrane for Western blotting using an anti-Myc antibody.

GST-SPATIAL(L) = biological target: T2, GST-SPATIAL(L) (Mus musculus, UniProt Q7TSD4); test: GST pulldown assay with GST-SPATIAL long isoform; type: binding; settings: 35S-methionine labeled in vitro translated protein
T2 construct: made in house
T2 sequence (Q7TSD4 with tags, fused parts or gaps isoform Q7TSD4-6 limits assumed): T1 sequence (Q7TSD4 with tags, fused parts or gaps isoform Q7TSD4-6 limits assumed)
Description: Eighteen cDNA clones identified in the yeast two-hybrid system were tested in an in vitro glutathione-S-transferase (GST) pulldown assay, as described in Ausubel et al., Current Protocols in Molecular Biology, Greene Publishing Associates, updated November 2003, Chapter 20, Analysis of Protein Interactions, Unit 20.2, Affinity Purification of Proteins Binding to GST Fusion Proteins.
Briefly, a GST-SPATIAL fusion construct was produced by cloning SPATIAL cDNA(s) into pGEx5X1 expression vector using standard molecular cloning techniques. GST or GST-SPATIAL fusion protein were expressed in 1-1000 ml bacterial cultures grown for 3-4 hours until OD600 reached 0.5. Then, plasmid expression was induced for 1.5-4 hours by the addition of ITPG to a final concentration of 0.11 mM. GST or GST-fusion proteins were purified using glutathione-Sepharose beads as described in Ausubel et al., Current Protocols in Molecular Biology, Greene Publishing Associates, updated November 2003, Chapter 20, Analysis of Protein Interactions, Unit 20.2, Affinity Purification of Proteins Binding to GST Fusion Proteins.
A coupled in vitro transcription and translation system (Promega) was used according to the manufacturer's instructions to produce radiolabeled protein from cDNAs to be tested. Radiolabeled proteins were mixed with either purified GST or GST-SPATIAL. Then, GST-containing protein complexes were purified by centrifugation from the reaction mixtures using glutathione-coated Sepharose beads. Bound proteins were eluted from the beads with SDS-PAGE loading buffer heated to 72-85° C., separated on polyacrylamide gels, and visualized by autoradiography. Specific interactions between GST-SPATIAL and in vitro translated proteins were indicated by the presence of a radiolabeled in vitro translated protein in the GST-SPATIAL-containing samples, but not in the GST-alone samples.
GST pulldown assays were performed as described in Example 9 using GST-SPATIAL(L) and GST-SPATIAL(S) and each of the Uba3 mutants described in this example.

caspase = test: Caspase activation flow cytometry assay (PhiPhi Lux); type: cell-based; settings: SPATIAL-EGFP transfected cells
Text: Caspase activation plays a central role in the execution of apoptosis (e.g., Budihardjo et al., Ann. Rev. Cell. Dev. Biol., 15:269-90, 1999).

293T cells [1] = test: Cell growth analysis: number of fluorescent (EGFP-positive) cells after transient transfection; type: cell-based, human
Description: Human embryonic kidney (293T) cells were maintained in DMEM supplemented with 10% heat-inactivated FBS, 2 mM glutamine, 100 U/ml penicillin, and 0.1 mg/ml streptomycin Cells were grown at 37° C. in a humidified atmosphere with 5% CO2.
The day before transfection, the cells were trypsinized (if needed), counted and plated in a 24-well plate at the density of 7.5×10^4 cells per well with 0.5 ml of their normal growth medium containing serum without antibiotics. On the day of transfection, cells were transfected according to the recommended protocol using 1.0 μg of each plasmid DNA and 3 μl of Lipofectamine 2000 in each well. The cells were kept at 37° C. in a CO2 incubator for 24 hours. […] The number of EGFP-positive cells was calculated using fluorescence-activated cytometry (FACS) analysis at various time points after transfection.
In representative experiments, approximately 0.5-1×10^6 293T cells were transiently transfected with approximately 1-10 μg of either SPATIAL EGFP expression vector or EGFP expression vector by calcium phosphate precipitation using the Mammalian Transfection Kit (Stratagene) in accordance with the manufacturer's instructions. The number of fluorescent EGFP- or SPATIAL-EGFP-transfected cells was monitored over time using flow cytometry or microscopic examination. […]

293T cells [2] = test: Propidium iodide staining for apoptosis; type: cell-based, human; settings: 24 to 72 hours after transfection
Text: Propidium iodide is a commonly known fluorescent compound, which intercalates into double-stranded nucleic acids. It is excluded by viable cells but can penetrate cell membranes of dying or dead cells. Thus, apoptotic cells may be identified by staining (and, in particular, nuclear staining) with propidium iodide.
Approximately 0.5-1.0×10^6 293T cells were transfected with SPATIAL-EGFP using either calcium phosphate (Mammalian Transfection Kit; Stratagene, La Jolla, Calif.) or Lipofectanine (Invitrogen, Rockville, Md.) in accordance with the manufacturers' instructions. Twenty-four (24) to 72 hours after transfection, the transfected cells were sorted. Approximately 1-5×10^5 sorted cells were resuspended in a solution contain 50 μg/ml propidium iodine, 0.1% sodium citrate and 0.1% Triton X-100 and incubated overnight to lyse the cells and stain the nuclei. Then, the sample was analyzed by flow cytometry to identify sub-diploid amounts of DNA which indicates cell death via apoptosis.

Wehi7.2 cells = test: Bcl-2 expression assay, SPATIAL-EGFP transfected thymocyte cell line; type: cell-based, mouse; settings: transient transfection by electroporation
Description: (§1) The mouse thymocyte cell line Wehi 7.2 and its variant Wbcl-2, which over expresses bcl-2, were maintained in DMEM supplemented with 10% heat-inactivated FBS, 2 mM glutamine, 100 U/ml penicillin, and 0.1 mg/ml streptomycin. Cells were grown at 37° C. in a humidified atmosphere with 5% CO2.
(§2) Transient transfections were performed using either lipids (Lipofectamine 2000 or FreeStyle 293 Expression System, each supplied by Invitrogen, Rockville, Md.) or calcium phosphate (Mammalian Transfection Kit; Stratagene, La Jolla, Calif.) or electroporation. Manufacturer instructions were followed for lipid and calcium phosphate transfections. For electroporation, the following procedure was used: Before transfection, Wehi cell and Wbcl-2 cells were counted and suspended in fresh complete DMEM without antibiotics at 5×10^5 cells/ml in a 15 cm dish. On the day of transfection, the cells were washed with PBS twice and were suspended in serum free DMEM at 6.25×10^6 cells/mL Aliquots of 800 μl cell suspension were transferred to a 4 mm electroporation cuvette and 10 μg of plasmid DNA solution was added. After 10 minutes incubation on ice, the cells were electroporated under the condition of 310 V, 725 ohms resistance, and 1050 μF capacitance. The transfected cells were incubated on ice for 10 minutes and suspended in complete DMEM in 10 cm dishes at the density of 7.5×10^4 viable cells/ml. […]

293T cells [3] = test: DiI cell division analysis by FACS; type: cell-based, human; settings: 4-day period, FIG. 7
Description: 293T cells were transfected with expression plasmid for EGFP alone (pEGFPN1; Clontech) or EGFP-SPATIAL(L). Twenty four (24) hours later, transfected cells were reacted with 3H-Indolium, 2-[3(1,3-dihydro-3,3-dimethyl-1-octacdecyl-2H-indol-2-ylidene)-propenyl]-3,3-dimethyl-octacdecyl-, perchlorate (DiI; Molecular Probes, Eugene, Oreg.) a fluorescent compound that […] binds to lipids. EGFP-positive and/or EGFP-negative cells were analyzed by FACS on the day after transfection and 1 hour after DiI labeling (Day 0) and four days after transfection (Day 4) as indicated.
To directly examine division of SPATIAL EGFP transfected cells, the lipophilic dye, 3H-Indolium, 2-[3-(1,3-dihydro-3,3-dimethyl-1-octacdecyl-2H-indol-2-ylidene) 1-propenyl]-3,3-dimethyl-1-octacdecyl-, perchlorate (DiI). DiI becomes highly fluorescent when it interacts with cell membranes and is equally portioned to each daughter cell during cell division. This property has been used to monitor cell divisions based on the reduction of dye in successive generations, which can be monitored using FACS analysis (Huang et al., Blood, 94(8):2595-2604, 1999). DiI was chosen so that the generational analysis could be done on EGFP-positive cells.

Hb12 cells = test: Bcl-2 expression assay, SPATIAL-EGFP transfected Bcl-2 expressing thymocyte cell line; type: cell-based, mouse; settings: transient transfection by electroporation
Description: as §1, §2

B1: Myc-346: Myc-tagged Uba3-clone 346, carboxyl terminus of Uba3, residues 203 to 441 of SEQ ID NO: 6 (protein, listed as Mus musculus)
chain: TLELYPPQVNFPMCTIASMPRLPEHCIEYVRMLQWPKEQPFGDGVPLDGDDPEHIQWIFQKSIERASQYNIRGVTYRLTQGVVKRIIPAVASTNAVIAAVCATEVFKIATSAYIPLNNYLVFNDVDGLYTYTFEAERKENCPACSQLPQNIQFSPSAKLQEVLDYLTNSASLQMKSPAITATLEGKNRTLYLQSVTSIEERTRPNLSKTLKELGLVDGQELAVADVTTPQTVLFKLHFT
modifications: not fully specified (N-terminus); also: Myc tag
co-immunoprecipitation by anti-HA antibody (HA-tagged SPATIAL): reproducibly immunoprecipitated | interaction with GST-SPATIAL(L) (GST-SPATIAL(L)): specifically interacted

B2: SPATIAL-EGFP: SPATIAL isoform fused to enhanced green fluorescent protein, expressed from pEGFPN1 (protein)
chain: T1 sequence (Q7TSD4 with tags, fused parts or gaps isoform Q7TSD4-6 limits assumed)
modifications: left off: large carriers
notes: SPATIAL isoform fused to enhanced green fluorescent protein, expressed from pEGFPN1
caspase activation (caspase): No caspase activation was detected | increase in the number of fluorescent cells (293T cells [1]; four day period post-transfection, FIG. 6): no increase | increase in the number of fluorescent transfected cells (293T cells [1]; two-week period post-transfection, G418 selection): 2-3 fold | apoptosis based on nuclear morphology of propidium iodide stained cells (293T cells [2]): no evidence of apoptosis | cell growth of transfected cells (Wehi7.2 cells): profound suppression of cell growth | cell division of EGFP-positive cells (293T cells [3]): effectively blocked the majority of transfected cells from dividing | cell growth of transfected cells (Hb12 cells): profound suppression of cell growth
